The values that follow come from patent US20260265392A1 (TSINGHUA UNIVERSITY, published 2026).

The target in experiment [1] is T1, CXC motif chemokine receptor 4 (CXCR4) (human, UniProt P61073 1-352).
T1 construct: whole, on cells; In the assays CXCR4 is the endogenous receptor of human cells; also called chemokine receptor CXCR4; endogenous CXCR4
Briefly: laser confocal imaging of SJSA-1 cells: membrane puncta only with ligand-fused domains; the receptor was not stained in this example. As for the experimental part:
(§1) Human osteosarcoma SJSA-1 cells (purchased from ATCC (https://www.atcc.org/)) were treated with the above-labeled recombinant proteins or control solution, and then immediately subjected to laser confocal scanning microscopy imaging. The steps are as follows:
(§2) Human osteosarcoma cell line SJSA-1 was cultured in RMPI-1640 medium containing 10% fetal bovine serum (FBS, purchased from Gibco) and 1× penicillin-streptomycin (purchased from HyClone) to 70%-80% confluence. The following combinations of recombinant proteins were added to the culture medium at the same time: (1) (SIM)₆-R4L (Red) and (SUM)₅ (Green), (2) (SIM)₆ (Red) and (SUM)₅-TRAIL (Green), (3) (SIM)₆-R4L (Red) and (SUM)₅-TRAIL (Green), (4) (SIM)₆ (Red) and (SUM)₅ (Green), to a final concentration of 100 nM respectively. The culture medium after adding the recombinant protein was mixed, incubated at 37° C. for about 1 min, and then imaged using a NIKON AIR HD25 laser confocal microscope (purchased from Nikon, Inc.).

Experiment [2] deals with T2, multivalent domain (SUM)5 (Alexa647 label in the imaging experiment (site not stated)).
T2 construct: also called (SUM)5 (Green)
Briefly: laser confocal imaging of SJSA-1 cells with (SIM)6-R4L (Red) and (SUM)5 (Green), 100 nM each (combination 1, FIG. 2A); co-localization. As for the experimental part:
as §1, §2

Experiment [3] deals with T1, CXC motif chemokine receptor 4 (CXCR4). Briefly: immunofluorescence of endogenous CXCR4 on SJSA-1 cells with labelled fusion proteins; co-localization (FIG. 3A, 3B). An excerpt:
(§3) Wherein, “Anti DR5” and “Anti CXCR4” respectively represent the fluorescence images of endogenous DR5 and CXCR4 obtained by immunofluorescence staining with DR5 antibody (Abcam, ab8416) and CXCR4 antibody (Protein Tech, 60042-1-Ig). […] The horizontal axis represents the relative distance along the straight path, and the vertical axis represents the relative fluorescence intensity measured at the corresponding position. […] From left to right, they correspond to treatment groups 1 to 3 listed in Example 2. […] The horizontal axis represents various recombinant protein treatment combinations with a final concentration of 100 nM. The vertical axis represents the fluorescence area corresponding to each spot.
(§4) The above recombinant protein combinations were added to the culture medium to a final concentration of 100 nM. The added culture medium was mixed, incubated at 37° C. for about 1 min, and then imaged by total internal reflection fluorescence microscopy (TIRF).

Experiment [4] has as its target T3, recombinant protein (SUM)5-DNB (Alexa647 label in the imaging experiment (site not stated)).
T3 construct: Fusion of a multivalent domain with a nanobody; also called (SUM)5-DNB (Green)
Briefly: fluorescence imaging of SJSA-1 cells, 100 nM each; co-localization (FIG. 3A, 3B).
Text: as §3, §4

The target of experiment [5] is T4, recombinant protein (SUM)3-DNB (Alexa647 label in the imaging experiment only (site not stated); no label is stated for the apoptosis assays).
T4 construct: Fusion of a multivalent domain with a nanobody; also called (SUM)3-DNB (Green); fusion protein (SUM)3-DNB
Briefly: fluorescence imaging of SJSA-1 cells; co-localization (FIG. 5A, 5B).
Text: (§5) Wherein, “Anti-DR5” and “Anti-CXCR4” respectively represent the fluorescence images of endogenous DR5 and CXCR4 obtained by immunofluorescence staining with DR5 antibody (Abcam, Catalog No. ab8416) and CXCR4 antibody (Protein Tech, Catalog No. 60042-1-Ig). […] The horizontal axis represents the relative distance along the straight path, and the vertical axis represents the relative fluorescence intensity measured at the corresponding position. […] The horizontal axis represents various recombinant protein treatment combinations with a final concentration of 100 nM. The vertical axis represents the fluorescence area corresponding to each spot.
as §4
(§6) By the same method as in Example 2, the total internal reflection fluorescence microscopy (TIRF) imaging of the following recombinant protein combination against the human osteosarcoma cell line SJSA-1 was measured, and the results are shown in FIG. 5: [0136] Treatment group: combination of (SIM)₃-CNB (Red) and (SUM)₃-DNB (Green) [0137] Control group: combination of (SIM)₃ (Red) and (SUM)₃ (Green)

Experiment [6] addresses T1, CXC motif chemokine receptor 4 (CXCR4). Briefly: immunofluorescence of endogenous CXCR4 on SJSA-1 cells with labelled fusion proteins; co-localization (FIG. 5A, 5B).
Text: as §5, §4, §6

T1 sequence (P61073 whole entry): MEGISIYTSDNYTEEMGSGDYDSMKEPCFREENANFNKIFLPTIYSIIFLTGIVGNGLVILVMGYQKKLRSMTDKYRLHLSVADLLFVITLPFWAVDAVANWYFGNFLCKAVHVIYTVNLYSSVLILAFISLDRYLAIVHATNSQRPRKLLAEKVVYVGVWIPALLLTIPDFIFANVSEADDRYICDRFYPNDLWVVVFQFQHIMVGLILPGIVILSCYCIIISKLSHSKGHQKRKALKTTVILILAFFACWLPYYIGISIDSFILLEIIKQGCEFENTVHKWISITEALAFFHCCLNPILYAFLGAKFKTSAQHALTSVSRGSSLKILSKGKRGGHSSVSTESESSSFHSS
T2 sequence (chain, as listed by the source): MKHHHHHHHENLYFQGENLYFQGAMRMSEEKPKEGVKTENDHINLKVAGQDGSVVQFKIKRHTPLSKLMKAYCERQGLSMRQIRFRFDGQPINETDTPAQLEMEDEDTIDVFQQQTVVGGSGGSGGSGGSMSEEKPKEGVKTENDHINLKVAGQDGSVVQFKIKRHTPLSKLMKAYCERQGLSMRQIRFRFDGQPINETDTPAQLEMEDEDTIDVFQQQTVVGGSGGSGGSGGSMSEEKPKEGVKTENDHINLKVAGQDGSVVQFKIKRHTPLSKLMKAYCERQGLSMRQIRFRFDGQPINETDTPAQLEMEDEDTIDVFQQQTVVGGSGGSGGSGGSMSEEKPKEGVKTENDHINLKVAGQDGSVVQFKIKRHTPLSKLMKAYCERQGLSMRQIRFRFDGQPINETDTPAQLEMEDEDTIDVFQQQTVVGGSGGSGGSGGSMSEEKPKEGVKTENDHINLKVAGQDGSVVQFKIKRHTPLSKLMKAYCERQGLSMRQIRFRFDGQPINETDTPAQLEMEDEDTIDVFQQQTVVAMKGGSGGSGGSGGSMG
T3 sequence (chain, as listed by the source): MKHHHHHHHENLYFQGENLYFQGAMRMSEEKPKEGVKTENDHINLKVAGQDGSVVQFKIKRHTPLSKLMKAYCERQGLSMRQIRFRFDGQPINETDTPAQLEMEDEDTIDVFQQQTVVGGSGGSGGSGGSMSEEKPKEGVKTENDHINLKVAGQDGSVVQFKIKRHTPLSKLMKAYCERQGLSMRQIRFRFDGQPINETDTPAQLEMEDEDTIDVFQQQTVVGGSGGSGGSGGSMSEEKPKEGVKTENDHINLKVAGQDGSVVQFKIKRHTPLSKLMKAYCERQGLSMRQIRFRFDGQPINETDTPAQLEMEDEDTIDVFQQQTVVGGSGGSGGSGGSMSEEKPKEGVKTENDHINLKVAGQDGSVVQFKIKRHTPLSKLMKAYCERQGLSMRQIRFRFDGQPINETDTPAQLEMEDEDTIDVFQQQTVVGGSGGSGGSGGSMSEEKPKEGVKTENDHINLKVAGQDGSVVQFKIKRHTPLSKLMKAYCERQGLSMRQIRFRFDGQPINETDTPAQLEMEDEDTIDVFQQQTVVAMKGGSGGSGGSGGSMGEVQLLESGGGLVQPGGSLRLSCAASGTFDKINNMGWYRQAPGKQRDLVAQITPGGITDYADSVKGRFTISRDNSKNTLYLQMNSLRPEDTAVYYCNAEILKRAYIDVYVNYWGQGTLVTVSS
T4 sequence (chain, as listed by the source): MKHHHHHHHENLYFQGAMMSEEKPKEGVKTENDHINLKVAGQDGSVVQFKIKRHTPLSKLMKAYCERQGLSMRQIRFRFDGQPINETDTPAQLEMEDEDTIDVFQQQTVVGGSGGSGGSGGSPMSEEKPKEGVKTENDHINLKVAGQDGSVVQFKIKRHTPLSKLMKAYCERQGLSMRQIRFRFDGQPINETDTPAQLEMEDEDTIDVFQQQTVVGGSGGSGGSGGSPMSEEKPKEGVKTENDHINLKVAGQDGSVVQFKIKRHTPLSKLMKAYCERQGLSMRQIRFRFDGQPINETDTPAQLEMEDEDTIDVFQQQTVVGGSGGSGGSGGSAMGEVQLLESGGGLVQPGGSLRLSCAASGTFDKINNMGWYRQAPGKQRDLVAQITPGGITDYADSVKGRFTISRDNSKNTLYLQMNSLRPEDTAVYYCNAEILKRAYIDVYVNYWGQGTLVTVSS

B1: recombinant protein (SIM)6-R4L (ligand)
chain: MKHHHHHHHENLYFQGAMSSKVDVIDLTIESSSDEEEDPPAKRGGSGGSGGSGGSKVDVIDLTIESSSDEEEDPPAKRGGSGGSGGSGGSKVDVIDLTIESSSDEEEDPPAKRGAMKGGSGGSGGSGGSMSSKVDVIDLTIESSSDEEEDPPAKRGGSVGSGGSGGSKVDVIDLTIESSSDEEEDPPAKRGGSGGSGGRGGSKVDVIDLTIESSSDEEEDPPAKRGAMRCWGGSGGSGGSGGSMGMCYRKCRGGRRWCYQKCGGSGGSGGSGGS
modifications: Alexa594 label in the imaging experiment (site not stated)
notes: also called (SIM)6-R4L (Red)
As for B1, the binding result in experiment [1] and in experiment [2] was “binds” each time.

B2: recombinant protein (SIM)6-CNB (VHH)
chain: MKHHHHHHHENLYFQGAMSSKVDVIDLTIESSSDEEEDPPAKRGGSGGSGGSGGSKVDVIDLTIESSSDEEEDPPAKRGGSGGSGGSGGSKVDVIDLTIESSSDEEEDPPAKRGAMKGGSGGSGGSGGSMSSKVDVIDLTIESSSDEEEDPPAKRGGSVGSGGSGGSKVDVIDLTIESSSDEEEDPPAKRGGSGGSGGRGGSKVDVIDLTIESSSDEEEDPPAKRGAMRCWGGSGGSGGSGGSMGEVQLMESGGGLVQAGGSLRLSCAASGRTFNNYAMGWFRRAPKGEREFVAAITRSGVRSGVSAIYGDSVKDRFTISRDNAKNTLYLQMNSLKPEDTAVYTCAASAIGSGALRRFEYDYSGQGTQVTVSS
modifications: Alexa594 label in the imaging experiment (site not stated)
notes: Fusion of a multivalent domain with a nanobody; also called (SIM)6-CNB (Red)
B2: the binding result in experiment [3] and in experiment [4] was “binds” in each case.

B3: recombinant protein (SIM)3-CNB (VHH)
chain: MKHHHHHHHENLYFQGAMKVDVIDLTIESSSDEEEDPPAKRGGSGGSGGSGGSMMKVDVIDLTIESSSDEEEDPPAKRGGSGGSGGSGGSMMKVDVIDLTIESSSDEEEDPPAKRGGSGGSGGSGGSMGEVQLMESGGGLVQAGGSLRLSCAASGRTFNNYAMGWFRRAPKGEREFVAAITRSGVRSGVSAIYGDSVKDRFTISRDNAKNTLYLQMNSLKPEDTAVYTCAASAIGSGALRRFEYDYSGQGTQVTVSS
modifications: Alexa594 label in the imaging experiment (site not stated)
notes: Fusion of a multivalent domain with a nanobody; also called (SIM)3-CNB (Red); fusion protein (SIM)3-CNB
Consider B3, for which the binding result in experiment [5] and in experiment [6] was “binds” in each case.
